Reference: US20230348578A1, “CONFORMATION-SPECIFIC ANTIBODIES THAT BIND TAU PROTEIN AND USES THEREOF” (Beth Israel Deaconess Medical Center, Inc., priority 2020, published 2023)

Molecular target: P-tau peptide (wild-type P-tau peptide and its pure cis or cis-locked, and pure trans counterparts)
Test: Biacore (SPR) with P-tau peptide

| Binder | Kd | Relative KD |
| --- | --- | --- |
| Cis-mAb HT14 (humanized) (antibody, V domains shown) VH: QVQLVQSGAELKKPGASVKMSCKASGYTFTSYWIHWVKQRPGQGLEWIGVIDPSDSYTRYNQKFKGRATLTVDTSASTAYMQLSSLTSEDSAVYYCTTWEVDYWGQGTTVTVSS VL: DVVMTQSPLSLPVTLGQPASISCRSSQSLVHSDGNTYLNWYLQKPGQSPQLLIYKVSNRFSGVPDRFSGSGSGTDFTLKISRVEAEDVGVYFCSQSTHVPWTFGGGTKVEIK | 30.2 nM | 24 fold of HT13 |
| Cis-mAb HT7 (humanized) (antibody, V domains shown) VH: QVQLVQSGAEVKKPGASVKVSCKASGYTFTSYWIHWVRQRPGQGLEWIGVIDPSDSYTRYNQKFKGRVTLTVDTSASTAYMELSSLRSEDTAVYYCTTWEVDYWGQGTLVTVSS VL: DVVMTQSPLSLPVTLGQPASISCRSSQSLVHSDGNTYLHWYLQKPGQSPQLLIYKVSNRDSGVPDRFSGSGSGTDFTLKISRVEAEDVGVYFCSQSTHVPWTFGGGTKVEIK | 10.8 nM | 8.57 fold of HT13 |
| Cis-mAb HT11 (humanized) (antibody, V domains shown) VH: QVQLVQSGAEVKKPGASVKVSCKASGYTFTSYWIHWVRQRPGQGLEWIGVIDPSDSYTRYNQKFKGRVTLTVDTSASTAYMELSSLRSEDTAVYYCTTWEVDYWGQGTLVTVSS VL: DVVMTQSPLSLPVTLGQPASISCRSSQSLVHSDGNTYLHWYLQKPGQSPQLLIYKVSNRFSGVPDRFSGSGSGTDFTLKISRVEAEDVGVYYCSQSTHVPWTFGGGTKVEIK | 3.99 nM | 3.17 fold of HT13 |
| Cis-mAb HT17 (humanized) (antibody, V domains shown) VH: QVQLVQSGAEVKKPGASVKVSCKASGYTFTSYWIHWVRQRPGQGLEWIGVIDPSDSYTRYNQKFKGRVTITRDTSASTAYMELSSLRSEDTAVYYCTTWEVDYWGQGTLVTVSS VL: DVVMTQSPLSLPVTLGQPASISCRSSQSLVHSDGNTYLNWYLQKPGQSPQLLIYKVSNRFSGVPDRFSGSGSGTDFTLKISRVEAEDVGVYFCSQSTHVPWTFGGGTKVEIK | 4940 nM | 3920 fold of HT13 |
| Cis-mAb HT8 (humanized) (antibody, V domains shown) VH: QVQLVQSGAEVKKPGASVKVSCKASGYTFTSYWIHWVRQRPGQGLEWIGVIDPSDSYTRYNQKFKGRVTITRDTSASTAYMELSSLRSEDTAVYYCTTWEVDYWGQGTLVTVSS VL: DVVMTQSPLSLPVTLGQPASISCRSSQSLVHSDGNTYLHWYLQKPGQSPQLLIYKVSNRDSGVPDRFSGSGSGTDFTLKISRVEAEDVGVYFCSQSTHVPWTFGGGTKVEIK | 7.68 nM | 6.11 fold of HT13 |
| Cis-mAb HT6 (humanized) (antibody, V domains shown) VH: QVQLVQSGAEVKKPGASVKMSCKASGYTFTSYWIHWVKQRPGQGLEWIGVIDPSDSYTRYNQKFKGRATLTVDTSASTAYMELSSLRSEDTAVYYCTTWEVDYWGQGTLVTVSS VL: DVVMTQSPLSLPVTLGQPASISCRSSQSLVHSDGNTYLHWYLQKPGQSPQLLIYKVSNRDSGVPDRFSGSGSGTDFTLKISRVEAEDVGVYFCSQSTHVPWTFGGGTKVEIK | 6.48 nM | 5.14 fold of HT13 |
| Cis-mAb HT12 (humanized) (antibody, V domains shown) VH: QVQLVQSGAEVKKPGASVKVSCKASGYTFTSYWIHWVRQRPGQGLEWIGVIDPSDSYTRYNQKFKGRVTITRDTSASTAYMELSSLRSEDTAVYYCTTWEVDYWGQGTLVTVSS VL: DVVMTQSPLSLPVTLGQPASISCRSSQSLVHSDGNTYLHWYLQKPGQSPQLLIYKVSNRFSGVPDRFSGSGSGTDFTLKISRVEAEDVGVYYCSQSTHVPWTFGGGTKVEIK | 3.55 nM | 2.82 fold of HT13 |
| Cis-mAb HT5 (humanized) (antibody, V domains shown) VH: QVQLVQSGAELKKPGASVKMSCKASGYTFTSYWIHWVKQRPGQGLEWIGVIDPSDSYTRYNQKFKGRATLTVDTSASTAYMQLSSLTSEDSAVYYCTTWEVDYWGQGTTVTVSS VL: DVVMTQSPLSLPVTLGQPASISCRSSQSLVHSDGNTYLHWYLQKPGQSPQLLIYKVSNRDSGVPDRFSGSGSGTDFTLKISRVEAEDVGVYFCSQSTHVPWTFGGGTKVEIK | 6.91 nM | 5.48 fold of HT13 |
| Cis-mAb HT15 (humanized) (antibody, V domains shown) VH: QVQLVQSGAEVKKPGASVKMSCKASGYTFTSYWIHWVKQRPGQGLEWIGVIDPSDSYTRYNQKFKGRATLTVDTSASTAYMELSSLRSEDTAVYYCTTWEVDYWGQGTLVTVSS VL: DVVMTQSPLSLPVTLGQPASISCRSSQSLVHSDGNTYLNWYLQKPGQSPQLLIYKVSNRFSGVPDRFSGSGSGTDFTLKISRVEAEDVGVYFCSQSTHVPWTFGGGTKVEIK | 33.4 nM | 26.5 fold of HT13 |

Continued, values first:

| Kd | Relative KD | Binder |
| --- | --- | --- |
| 1.91 nM | 1.52 fold of HT13 | Cis-mAb HT18 (humanized) (antibody, V domains shown) VH: QVQLVQSGAEVKKPGSSVKVSCKASGYTFTSYWIHWVRQAPGQGLEWMGVIDPSDSYTRYNQKFKGRVTITRDTSMSTAYTELSSLRSEDTAVYYCTTWEVDYWGQGTLVTVSS VL: DIQMTQSPSTLSASVGDRVTITCRSSQSLVHSDGNTYLHWYQQKPGKAPKLLIYKVSNRFSGVPSRFSGSGSGTEFTLTISSLQPDDFATYYCSQSTHVPWTFGQGTKLEIK |
| 1.26 nM | 1 fold of HT13 | Cis-mAb HT13 (mouse-human chimera, control) (antibody, V domains shown) VH: QVQLQQPGAELVKPGASVKMSCKASGYTFTSYWIHWVKQRPGQGLEWIGVIDPSDSYTRYNQKFKGKATLTVDTSSSTAYMQLSSLTSEDSAVYYCTTWEVDYWGQGTTLTVSS VL: DVVMTQTPLSLPVSLGDQASISCRSSQSLVHSDGNTYLHWYLQKPGQSPKLLIYKVSNRFSGVPDRFSGSGSGTDFTLKISRLEAEDLGVYFCSQSTHVPWTFGGGTKLEIK |
| 2.42 nM | 1.92 fold of HT13 | Cis-mAb HT4 (humanized) (antibody, V domains shown) VH: QVQLVQSGAEVKKPGASVKVSCKASGYTFTSYWIHWVRQRPGQGLEWIGVIDPSDSYTRYNQKFKGRVTITRDTSASTAYMELSSLRSEDTAVYYCTTWEVDYWGQGTLVTVSS VL: DVVMTQSPLSLPVTLGQPASISCRSSQSLVHSDGNTYLHWYLQKPGQSPQLLIYKVSNRFSGVPDRFSGSGSGTDFTLKISRVEAEDVGVYFCSQSTHVPWTFGGGTKVEIK |
| 3.26 nM | 2.59 fold of HT13 | Cis-mAb HT16 (humanized) (antibody, V domains shown) VH: QVQLVQSGAEVKKPGASVKVSCKASGYTFTSYWIHWVRQRPGQGLEWIGVIDPSDSYTRYNQKFKGRVTLTVDTSASTAYMELSSLRSEDTAVYYCTTWEVDYWGQGTLVTVSS VL: DVVMTQSPLSLPVTLGQPASISCRSSQSLVHSDGNTYLNWYLQKPGQSPQLLIYKVSNRFSGVPDRFSGSGSGTDFTLKISRVEAEDVGVYFCSQSTHVPWTFGGGTKVEIK |
| 1.62 nM | 1.29 fold of HT13 | Cis-mAb HT2 (humanized) (antibody, V domains shown) VH: QVQLVQSGAEVKKPGASVKMSCKASGYTFTSYWIHWVKQRPGQGLEWIGVIDPSDSYTRYNQKFKGRATLTVDTSASTAYMELSSLRSEDTAVYYCTTWEVDYWGQGTLVTVSS VL: DVVMTQSPLSLPVTLGQPASISCRSSQSLVHSDGNTYLHWYLQKPGQSPQLLIYKVSNRFSGVPDRFSGSGSGTDFTLKISRVEAEDVGVYFCSQSTHVPWTFGGGTKVEIK |
| 1.77 nM | 1.4 fold of HT13 | Cis-mAb HT10 (humanized) (antibody, V domains shown) VH: QVQLVQSGAEVKKPGASVKMSCKASGYTFTSYWIHWVKQRPGQGLEWIGVIDPSDSYTRYNQKFKGRATLTVDTSASTAYMELSSLRSEDTAVYYCTTWEVDYWGQGTLVTVSS VL: DVVMTQSPLSLPVTLGQPASISCRSSQSLVHSDGNTYLHWYLQKPGQSPQLLIYKVSNRFSGVPDRFSGSGSGTDFTLKISRVEAEDVGVYYCSQSTHVPWTFGGGTKVEIK |
| 3.51 nM | 2.79 fold of HT13 | Cis-mAb HT3 (humanized) (antibody, V domains shown) VH: QVQLVQSGAEVKKPGASVKVSCKASGYTFTSYWIHWVRQRPGQGLEWIGVIDPSDSYTRYNQKFKGRVTLTVDTSASTAYMELSSLRSEDTAVYYCTTWEVDYWGQGTLVTVSS VL: DVVMTQSPLSLPVTLGQPASISCRSSQSLVHSDGNTYLHWYLQKPGQSPQLLIYKVSNRFSGVPDRFSGSGSGTDFTLKISRVEAEDVGVYFCSQSTHVPWTFGGGTKVEIK |
| 1.83 nM | 1.45 fold of HT13 | Cis-mAb HT1 (humanized) (antibody, V domains shown) VH: QVQLVQSGAELKKPGASVKMSCKASGYTFTSYWIHWVKQRPGQGLEWIGVIDPSDSYTRYNQKFKGRATLTVDTSASTAYMQLSSLTSEDSAVYYCTTWEVDYWGQGTTVTVSS VL: DVVMTQSPLSLPVTLGQPASISCRSSQSLVHSDGNTYLHWYLQKPGQSPQLLIYKVSNRFSGVPDRFSGSGSGTDFTLKISRVEAEDVGVYFCSQSTHVPWTFGGGTKVEIK |
| 1.89 nM | 1.5 fold of HT13 | Cis-mAb HT9 (humanized) (antibody, V domains shown) VH: QVQLVQSGAELKKPGASVKMSCKASGYTFTSYWIHWVKQRPGQGLEWIGVIDPSDSYTRYNQKFKGRATLTVDTSASTAYMQLSSLTSEDSAVYYCTTWEVDYWGQGTTVTVSS VL: DVVMTQSPLSLPVTLGQPASISCRSSQSLVHSDGNTYLHWYLQKPGQSPQLLIYKVSNRFSGVPDRFSGSGSGTDFTLKISRVEAEDVGVYYCSQSTHVPWTFGGGTKVEIK |
